B1: mouse full-length GPR56 (GPR56 FL), wild type, on HEK293T cells [mouse] / mouse tissue transglutaminase 2 C-terminal D3D4 domains (mTG2 D3D4) [modified: biotin on the AVI-tag; biotin on the AVI-tag] [mouse] (parent)
chain 1: TGVAMRIRVGDSMSMGNDFDVFAHIGNDTSETRECRLLLCARTVSYNGVLGPECGTEDINLTLDPYSENSIPLRILYEKYSGCLTESNLIKVRGLLIEPAANSYLLAERDLYLENPEIKIRVLGEPKQNRKLVAEVSLKNPLSDPLYDCIFTVEGAGLTKEQKSVEVSDPVPAGDLVKARVDLFPTDIGLHKLVVNFQCDKLKSVKGYRNVIIGPA
chain 2: GSPREDFRFCGQRNQTQQSTLHYDQSSEPHIFVWNTEETLTIRAPFLAAPDIPRFFPEPRGLYHFCLYWSRHTGRLHLRYGKHDYLLSSQASRLLCFQKQEQSLKQGAPLIATSVSSWQIPQNTSLPGAPSFIFSFHNAPHKVSHNASVDMCDLKKELQQLSRYLQHPQKAAKRPTAAFISQQLQSLESKLTSVSFLGDTLSFEEDRVNATVWKLPPTAGLEDLHIHSQKEEEQSEVQAYSLLLPRAVFQQTRGRRRDDAKRLLVVDFSSQALFQDKNSSQVLGEKVLGIVVQNTKVTNLSDPVVLTFQHQPQPKNVTLQCVFWVEDPASSSTGSWSSAGCETVSRDTQTSCLCNHLTYFAVLMVSSTEVEATHKHYLTLLSYVGCVISALACVFTIAAYLCSRRKSRDYTIKVHMNLLSAVFLLDVSFLLSEPVALTGSEAACRTSAMFLHFSLLACLSWMGLEGYNLYRLVVEVFGTYVPGYLLKLSIVGWGFPVFLVTLVALVDVNNYGPIILAVRRTPERVTYPSMCWIRDSLVSYVTNLGLFSLVFLFNLAMLATMVVQILRLRPHSQNWPHVLTLLGLSLVLGLPWALVFFSFASGTFQLVILYLFSIITSFQGFLIFLWYWSMRFQAQGGPSPLKNNSDSAKLPISSGSTSSSRI

Variants of: B1
Assay: flow cytometry on cells
Conditions: with mouse tissue transglutaminase 2 C-terminal D3D4 domains (mTG2 D3D4) [modified: biotin on the AVI-tag, 5 nM TG2 D3D4 (tetramerized), GPR56 FL constructs expressed on HEK293T cells, n = 3, parent: 1, read off a plot

| Variant | ratio to parent |
| --- | --- |
| chain 2 H64A | 0.64 |
| chain 2 H64A S125A | 6.6 |
| chain 2 H64A Y68A | 0.22 |
| chain 2 H64A Y68A R79D | 0.2 |
| chain 2 H64A Y68A S125A | 4.1 |
| chain 2 L62D | 0.21 |
| chain 2 L62D S125A | 0.33 |
| chain 2 S125A | 8.7 |
| chain 2 Y68A | 0.33 |

Reference: article PMC7547085, “Specific and direct modulation of the interaction between adhesion GPCR GPR56/ADGRG1 and tissue transglutaminase 2 using synthetic ligands” (Scientific Reports, 2020)
